Assay results published in patent US20220072120A1 (University of Washington, published 2022).

Target: I53-dn5 B
Experiment: in vitro nanoparticle assembly; SEC on Superose 6, SDS-PAGE

B1: I53-dn5 A.2 (A_LF2_W16G_LS) (designed binder)
chain: MGKYDGSKLRIGILHARGNAEIILELVLGALKRLQEFGVKRENIIIETVPGSFELPYGSKLFVEKQKRLGKPLDAIIPIGVLIRGSTAHFDYIADSTTHQLMKLNFELGIPVIFGVLTTESDEQAEERAGTKAGNHGEDWGAAAVEMATKFN
B1: binds.
